Legend:
phiC31 integrase C374A = target: T1, phiC31 integrase C374A (Streptomyces phage phiC31, UniProt Q38194 1-613, C374A); assay: EMSA; 50 ng/ul Poly (competitor (so in the source)), 0.05% NP-40, 50 mM KCl, 5 mM MgCl2, 10 mM EDTA, 20 ul, 0.4 ng (16 fmol) probe; 30 min at room temperature (Methods) or 30 C; pH not stated; synapsis 2 h at 30 C; details: protein: recombinant; tags: C-terminal His; chain copies: 2; label: biotin, double-strand end-labeled; blunt
T1 sequence: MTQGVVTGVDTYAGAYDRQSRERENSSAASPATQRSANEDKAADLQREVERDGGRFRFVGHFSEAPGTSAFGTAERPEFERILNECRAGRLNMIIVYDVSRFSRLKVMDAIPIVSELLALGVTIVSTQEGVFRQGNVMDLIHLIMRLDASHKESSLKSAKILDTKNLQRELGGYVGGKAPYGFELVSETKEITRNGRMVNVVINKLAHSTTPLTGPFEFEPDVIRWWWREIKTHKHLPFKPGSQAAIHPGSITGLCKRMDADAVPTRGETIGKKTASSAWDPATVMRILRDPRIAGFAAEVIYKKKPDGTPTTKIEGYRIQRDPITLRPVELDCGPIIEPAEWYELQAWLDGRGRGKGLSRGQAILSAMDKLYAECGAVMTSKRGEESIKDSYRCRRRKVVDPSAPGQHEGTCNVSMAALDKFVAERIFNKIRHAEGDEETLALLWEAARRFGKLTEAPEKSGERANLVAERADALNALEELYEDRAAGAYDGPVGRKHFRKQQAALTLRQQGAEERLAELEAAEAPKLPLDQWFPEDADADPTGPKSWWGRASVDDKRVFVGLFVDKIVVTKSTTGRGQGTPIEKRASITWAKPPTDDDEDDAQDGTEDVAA

[1] = target: T2, phiC31 integrase G182A/F183A (Streptomyces phage phiC31, UniProt Q38194 1-613, G182A;F183A); assay: as above; details: protein: recombinant; tags: C-terminal His; chain copies: 2; label: biotin, double-strand end-labeled; blunt
T2 sequence: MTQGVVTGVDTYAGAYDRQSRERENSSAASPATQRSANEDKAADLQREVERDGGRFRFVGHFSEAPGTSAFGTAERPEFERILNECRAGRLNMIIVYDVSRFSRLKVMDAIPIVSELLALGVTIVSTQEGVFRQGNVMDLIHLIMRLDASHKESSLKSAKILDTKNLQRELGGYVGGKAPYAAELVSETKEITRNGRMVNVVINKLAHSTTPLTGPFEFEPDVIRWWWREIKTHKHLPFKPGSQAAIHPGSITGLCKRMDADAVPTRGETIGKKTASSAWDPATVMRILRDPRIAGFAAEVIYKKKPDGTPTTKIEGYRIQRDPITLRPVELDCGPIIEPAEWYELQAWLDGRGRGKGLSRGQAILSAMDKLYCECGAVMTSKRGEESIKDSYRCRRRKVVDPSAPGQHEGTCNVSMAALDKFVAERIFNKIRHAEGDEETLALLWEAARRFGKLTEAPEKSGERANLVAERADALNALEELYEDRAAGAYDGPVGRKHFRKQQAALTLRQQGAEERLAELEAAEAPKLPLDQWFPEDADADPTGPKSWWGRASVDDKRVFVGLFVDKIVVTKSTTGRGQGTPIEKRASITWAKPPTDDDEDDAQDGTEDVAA

phiC31 integrase WT = target: T3, phiC31 integrase WT (Streptomyces phage phiC31, UniProt Q38194 1-613); assay: EMSA; complexes I, II, III; 50 ng/ul Poly (competitor (so in the source)), 0.05% NP-40, 50 mM KCl, 5 mM MgCl2, 10 mM EDTA, 20 ul, 0.4 ng (16 fmol) probe; 30 min at room temperature (Methods) or 30 C; pH not stated; synapsis 2 h at 30 C; details: protein: recombinant; tags: C-terminal His (pET22b); chain copies: 2; label: biotin, double-strand end-labeled; blunt
T3 sequence: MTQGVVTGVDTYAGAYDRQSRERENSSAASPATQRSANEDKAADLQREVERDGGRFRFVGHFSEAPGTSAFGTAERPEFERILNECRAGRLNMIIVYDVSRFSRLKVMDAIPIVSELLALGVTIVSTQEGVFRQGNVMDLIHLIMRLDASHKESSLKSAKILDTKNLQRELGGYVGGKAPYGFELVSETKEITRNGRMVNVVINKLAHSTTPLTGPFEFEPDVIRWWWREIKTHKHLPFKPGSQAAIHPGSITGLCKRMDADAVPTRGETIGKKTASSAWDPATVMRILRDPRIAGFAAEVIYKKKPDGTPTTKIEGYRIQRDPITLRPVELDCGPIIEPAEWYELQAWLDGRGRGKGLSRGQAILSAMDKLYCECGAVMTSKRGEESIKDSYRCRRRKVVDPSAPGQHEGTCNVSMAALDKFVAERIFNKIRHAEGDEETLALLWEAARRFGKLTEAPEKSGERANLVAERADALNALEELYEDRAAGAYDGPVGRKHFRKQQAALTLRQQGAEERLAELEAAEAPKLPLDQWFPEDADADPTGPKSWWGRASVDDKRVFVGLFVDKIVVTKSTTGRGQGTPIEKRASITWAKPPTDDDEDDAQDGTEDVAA

B1: attP 50 bp (dsDNA)
DNA 1: GTAGTGCCCCAACTGGGGTAACCTTTGAGTTCTCTCAGTTGGGGGCGTAG
DNA 2: CTACGCCCCCAACTGAGAGAACTCAAAGGTTACCCCAGTTGGGGCACTAC
B1: no binding (phiC31 integrase C374A); no binding [1]; binds (phiC31 integrase WT).

Source: publication PMC2810336, “Mutational Analysis of Highly Conserved Residues in the Phage PhiC31 Integrase Reveals Key Amino Acids Necessary for the DNA Recombination”
